{"source": "paper PMC5372380", "molecular_target": "BG505 SOSIP.664 trimer, His-tagged (HIV-1 isolate BG505)", "assay": "SPR", "data": [{"substance": "ACS202 Fab", "values": [{"measurement": "stoichiometry N (mAb per trimer)", "value": 3}]}]}
